Results as given in patent US20140193915, “COMPOSITIONS AND METHODS FOR CUSTOM SITE-SPECIFIC DNA RECOMBINASES” (Monsanto Technology, LLC, published 2014).

Assays:
Test in all cases: cell_activity; E. coli
sN-TALER IV-3 = target: T1, sN-TALER IV-3 (synthetic); conditions: tags: 6-His
T1 chain: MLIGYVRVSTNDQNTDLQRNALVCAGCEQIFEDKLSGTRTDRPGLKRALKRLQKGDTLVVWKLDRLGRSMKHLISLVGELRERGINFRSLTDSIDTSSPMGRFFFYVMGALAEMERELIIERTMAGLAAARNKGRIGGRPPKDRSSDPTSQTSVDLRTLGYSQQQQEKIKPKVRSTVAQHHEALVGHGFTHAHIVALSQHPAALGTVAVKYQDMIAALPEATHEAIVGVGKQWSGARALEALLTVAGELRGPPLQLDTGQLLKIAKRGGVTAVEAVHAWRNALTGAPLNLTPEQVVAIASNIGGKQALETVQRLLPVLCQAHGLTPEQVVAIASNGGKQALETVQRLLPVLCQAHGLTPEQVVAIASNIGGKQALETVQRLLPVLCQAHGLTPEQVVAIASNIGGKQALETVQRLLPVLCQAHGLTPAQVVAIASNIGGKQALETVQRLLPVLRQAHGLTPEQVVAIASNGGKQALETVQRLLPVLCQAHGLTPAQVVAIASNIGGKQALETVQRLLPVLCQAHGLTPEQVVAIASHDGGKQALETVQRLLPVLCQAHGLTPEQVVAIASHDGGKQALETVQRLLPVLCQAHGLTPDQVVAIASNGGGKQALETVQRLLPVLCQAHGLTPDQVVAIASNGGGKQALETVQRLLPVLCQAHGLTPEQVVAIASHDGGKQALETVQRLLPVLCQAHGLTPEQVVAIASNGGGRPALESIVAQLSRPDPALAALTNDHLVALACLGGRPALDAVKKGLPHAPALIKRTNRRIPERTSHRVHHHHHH
Outline: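 DH5alpha cells co-transformed (heat shock or electroporation) with N-TALER expression and reporter plasmids at ~1:1 mass ratio; reporter alone as control. Plated on chloramphenicol/kanamycin/X-gal, grown 37° C. for 18 to 36 hours; recombination scored by colony colour.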

pN-TALER IV-14 = target: T2, pN-TALER IV-14 (synthetic)
T2 chain: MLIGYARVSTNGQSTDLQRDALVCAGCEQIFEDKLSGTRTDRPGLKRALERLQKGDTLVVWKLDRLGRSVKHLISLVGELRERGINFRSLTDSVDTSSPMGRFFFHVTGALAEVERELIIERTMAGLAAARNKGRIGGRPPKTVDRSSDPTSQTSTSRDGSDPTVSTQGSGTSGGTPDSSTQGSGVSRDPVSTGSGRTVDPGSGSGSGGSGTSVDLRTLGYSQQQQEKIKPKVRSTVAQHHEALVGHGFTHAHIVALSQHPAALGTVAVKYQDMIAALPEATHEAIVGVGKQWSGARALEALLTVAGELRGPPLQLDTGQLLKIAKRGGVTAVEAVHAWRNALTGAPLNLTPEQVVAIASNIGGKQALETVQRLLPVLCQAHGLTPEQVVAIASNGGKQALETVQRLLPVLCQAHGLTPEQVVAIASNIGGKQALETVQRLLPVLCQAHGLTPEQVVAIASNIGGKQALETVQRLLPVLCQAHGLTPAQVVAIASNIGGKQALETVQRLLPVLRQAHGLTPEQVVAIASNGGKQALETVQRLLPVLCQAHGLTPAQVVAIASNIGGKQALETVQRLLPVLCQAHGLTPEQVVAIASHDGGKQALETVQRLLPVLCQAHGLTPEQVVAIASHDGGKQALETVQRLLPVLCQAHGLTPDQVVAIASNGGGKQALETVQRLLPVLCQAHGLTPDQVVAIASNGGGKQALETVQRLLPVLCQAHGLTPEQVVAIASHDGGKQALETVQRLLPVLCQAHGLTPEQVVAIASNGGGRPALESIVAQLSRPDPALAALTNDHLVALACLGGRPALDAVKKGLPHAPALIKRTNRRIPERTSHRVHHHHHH
Experimental: (§1) To test for recombination, E. coli DH5alpha cells were co-transformed with different combinations of TALER expression construct and TALER reporter construct pairs (Tables 6 and 7). The N-TALER expression and reporter constructs were in an approximate 1:1 mass ratio during the transformation. The co-transformed bacteria were plated on media with chloramphenicol, kanamycin, and X-gal then incubated at 37° C. for 18 to 36 hours. Control samples consisted of transformations using the reporter construct alone. Control transformants were similarly plated. The bacterial transformation protocol was either heat shock or electroporation per standard molecular biology techniques.
(§2) The N-TALER expression constructs representing the N-TALER chimeras with varying linker lengths were co-transformed with N-TALER reporter constructs with TALER central sequence lengths of 18, 20, 24, 30, 40, and 50 bp (Table 13). […] Recombination did occur, but was less efficient with the pN-TALER IV-14 (linker length of 71 amino acids) with each of the N-TALER reporters tested.

sN-TALER IV-12 = target: T3, sN-TALER IV-12 (synthetic)
T3 chain: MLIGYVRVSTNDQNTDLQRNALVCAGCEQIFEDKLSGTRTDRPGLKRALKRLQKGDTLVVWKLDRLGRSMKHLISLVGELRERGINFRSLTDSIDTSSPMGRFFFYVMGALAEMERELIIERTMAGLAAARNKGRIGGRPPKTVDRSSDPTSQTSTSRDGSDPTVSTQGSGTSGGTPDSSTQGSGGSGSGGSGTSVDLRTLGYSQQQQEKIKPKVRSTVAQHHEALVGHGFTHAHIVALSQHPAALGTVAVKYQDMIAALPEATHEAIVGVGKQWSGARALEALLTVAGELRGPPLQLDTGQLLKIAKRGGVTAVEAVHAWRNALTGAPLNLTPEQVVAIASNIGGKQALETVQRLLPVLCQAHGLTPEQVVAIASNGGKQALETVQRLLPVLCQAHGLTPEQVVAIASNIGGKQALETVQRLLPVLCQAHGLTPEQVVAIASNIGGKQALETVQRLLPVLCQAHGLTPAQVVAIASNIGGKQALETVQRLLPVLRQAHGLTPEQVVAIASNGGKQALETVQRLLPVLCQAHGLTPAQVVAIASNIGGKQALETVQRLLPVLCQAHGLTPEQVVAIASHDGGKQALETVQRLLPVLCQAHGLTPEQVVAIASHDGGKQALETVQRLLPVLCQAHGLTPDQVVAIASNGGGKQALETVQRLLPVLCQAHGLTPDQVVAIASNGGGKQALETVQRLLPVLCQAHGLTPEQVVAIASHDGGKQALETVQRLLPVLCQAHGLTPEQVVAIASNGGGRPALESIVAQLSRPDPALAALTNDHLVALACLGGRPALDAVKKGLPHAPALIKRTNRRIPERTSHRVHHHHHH
Experimental: as §1, §2

Row | Binder | activity (sN-TALER IV-3) | activity (pN-TALER IV-14) | activity (sN-TALER IV-12)
1 | Gin18TALE+0 (dsDNA) DNA 1: AGAAGGTATTTATACCAAAACCATGGTTTACATATAAATACCTTCT DNA 2: AGAAGGTATTTATATGTAAACCATGGTTTTGGTATAAATACCTTCT | 2 score | – | –
2 | Gin20TALE+0 (dsDNA) DNA 1: AGAAGGTATTTATATCCAAAACCATGGTTTACAGTATAAATACCTTCT DNA 2: AGAAGGTATTTATACTGTAAACCATGGTTTTGGATATAAATACCTTCT | 1 score | 3 score | 1 score
